{"source": "paper PMC3667669", "about": "(2014)", "binders": {"B1": {"name": "WASP CBD (Cdc42 binding domain) (protein)", "chain": "KKKISKADIGAPSGFKHVSHVGWDPQNGFDVNNLDPDLRSLFSRAGISEAQLTDAETSK", "modifications": "also: MBP fusion, mero87 dye label, site not given here"}, "B2": {"name": "WASP CBD (Cdc42 binding domain) (protein)", "chain": "B1 chain", "modifications": "also: MBP fusion, mero61 dye label, site not given here"}}, "molecular_target": "Cdc42 (Homo sapiens, UniProt P60953)", "sequence (P60953 1-188)": "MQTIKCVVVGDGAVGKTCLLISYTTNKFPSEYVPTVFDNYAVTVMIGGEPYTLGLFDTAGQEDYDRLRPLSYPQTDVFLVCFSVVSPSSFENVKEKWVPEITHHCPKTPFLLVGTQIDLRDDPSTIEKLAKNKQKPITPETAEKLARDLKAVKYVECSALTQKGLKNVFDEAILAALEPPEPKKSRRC", "experiment": "fluorescence intensity titration", "note": "Where no end group is shown, it is not given here.", "data": [{"binder": "B1", "values": [{"measurement": "Kd", "result": 186, "unit": "nM"}]}, {"binder": "B2", "values": [{"measurement": "Kd", "result": 144, "unit": "nM"}]}]}
